In paper PMC9636928 (Proceedings of the National Academy of Sciences of the …, 2022):

Biological target: the molecule itself
Test: cryo-EM structure

B1: Transmembrane protein 175 (TMEM175), human (natural protein)
chain: MSQPRTPEQALDTPGDCPPGRRDEDAGEGIQCSQRMLSFSDALLSIIATVMILPVTHTEISPEQQFDRSVQRLLATRIAVYLMTFLIVTVAWAAHTRLFQVVGKTDDTLALLNLACMMTITFLPYTFSLMVTFPDVPLGIFLFCVCVIAIGVVQALIVGYAFHFPHLLSPQIQRSAHRALYRRHVLGIVLQGPALCFAAAIFSLFFVPLSYLLMVTVILLPYVSKVTGWCRDRLLGHREPSAHPVEVFSFDLHEPLSKERVEAFSDGVYAIVATLLILDICEDNVPDPKDVKERFSGSLVAALSATGPRFLAYFGSFATVGLLWFAHHSLFLHVRKATRAMGLLNTLSLAFVGGLPLAYQQTSAFARQPRDELERVRVSCTIIFLASIFQLAMWTTALLHQAETLQPSVWFGGREHVLMFAKLALYPCASLLAFASTCLLSRFSVGIFHLMQIAVPCAFLLLRLLVGLALATLRVLRGLARPEHPPPAPTGQDDPQSQLLPAPC
B1: binds.
